System: MS2 coat protein
Assay: apparent KD of MS2 coat protein; designed switch direction (-1 OFF switch, 1 ON switch): -1; higher = weaker reporter binding
In short: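 The apparent KD reported per design is the median over clusters of curve fits to normalised cluster fluorescence. The RNA switches were transcribed on Illumina chips by stalled E. coli RNA polymerase. SNAP-549-labelled MS2 coat protein was titrated from 0.7 or 1.5 nM, doubling up to 3 µM, in Tris-HCl pH 7.5 buffer containing KCl, MgCl2, BSA, DTT, tRNA and Tween-20, with no input, 200 uM small-molecule ligand, or an oligonucleotide input.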

[1] = Eterna round: R95, input ligand: FMN 200 uM
[2] = Eterna round: R95, input ligand: microRNA oligo, concentration not stated
[3] = Eterna round: R95, input ligand: none
[4] = input ligand: microRNA oligo, concentration not stated

Sequence	apparent KD of MS2 coat protein (input ligand: FMN 200 uM)	apparent KD of MS2 coat protein (input ligand: none)	apparent KD of MS2 coat protein [2]	also measured
CUCGGGCUGGUGAGGAUAUCGGGCUCUAAAGGGCUCGAGAAGGCACAUGAGGAUCACCCAUGUAAUGGCUCGGG [-29.3, -27.9 kcal, A 23%, 4-4bis] (Eterna round: R97, puzzle: Brourd's mod of Exclusion 4)	17.3 nM	24.5 nM		
CUCGUGGUGAAGGAUAUCCGCGAGAAAAUAAAAGGAGAAGGUCACACAUGAGGAUCACCCAUGUGAUGAAGAAA [Anesanza] (puzzle: Exclusion 6)			11.6 nM	apparent KD of MS2 coat protein [1]: 16.4 nM; apparent KD of MS2 coat protein [3]: 11.9 nM
CUCGUGUAAGGAUAUAUGAGUCACGGAAAUAAACCGUGAAGAUAGAAGGUACAUGAGGAUCACCCAUGUAAAAC [Mod of Anonveat 4 - Jieux - Exclusion 4] (Eterna round: R97, puzzle: Exclusion 4)	124 nM	99.4 nM		
CUCGUGUCGGAGGAUAUCCAGCGCGAAAAUAAAGGAGAAGGCCGCACAUGAGGAUCACCCAUGUAACAUGGUCC [Onbier] (puzzle: Exclusion 6)			44.8 nM	
CUCGUGUGAGGAUAUCUAUUCCACGGACGGGAGUCUUGAUGAGAGAAGGCACAUGAGGAUCACCCAUGUAAUAA [Laveinxe] (puzzle: Exclusion 4)			105 nM	
CUCUUGAGUCAGGAUAUCGAGAGGCUAAUAAAACGAGAAGGGACUACAUGAGGAUCACCCAUGUGAUCGCAAAA [Geonge] (Eterna round: R97, puzzle: Exclusion 6)	433 nM	61.7 nM		
CUCUUGGCAGGAUAUGCUCUCUUAGACAUGAGGAUCACCCAUGUGUUCAUUCUUUCUUUUGCAGAAGGGCCUUAAC [JR_E5_Sub046] (Eterna round: R96, puzzle: Exclusion 5)	128 nM	76.9 nM		apparent KD of MS2 coat protein [4]: 57.9 nM
CUCUUGGCAGGAUAUGCUCUCUUAGACAUGAGGAUCACCCAUGUGUUCAUUCUUUCUUUUGCAGAAGGGCCUUAAC [JR_E5_Sub046] (puzzle: Exclusion 5)			65.2 nM	
CUCUUGUCAGGAUAUCUAAGCUGCCUCCCAGUAGCCGAAUUAGAGAAGGGACAUGAGGAUCACCCAUGUAAACG [Enaeren] (puzzle: Exclusion 4)			106 nM	
CUCUUGUCAGGAUAUCUAAGCUGCCUCCCGGUAGCCGAAUUAGAGAAGGGACAUGAGGAUCACCCAUGUAAAAG [Qubile] (puzzle: Exclusion 4)			160 nM	apparent KD of MS2 coat protein [1]: 58.3 nM; apparent KD of MS2 coat protein [3]: 280 nM
CUCUUGUUAGGAUAUCAAACCGGCGGCGGAGCCGCCGGAAGUGAGAAGGGACAUGAGGAUCACCCAUGUAAGAA [Maorgees] (puzzle: Exclusion 4)			56.3 nM	
CUGAACCCGGUAGGAUAUAUUGUGGGCAAGCAUGGAACGACAUGAGGAUCACCCAUGUAAUUUAGGUAGAAGGGCCAAAAGAUU [Excl-NG2-LRO09] (Eterna round: R96, puzzle: Exclusion NG 2)	34.6 nM	53.9 nM		apparent KD of MS2 coat protein [4]: 28.9 nM
CUGAACCCGGUAGGAUAUAUUGUGGGCAAGCAUGGAACGACAUGAGGAUCACCCAUGUAAUUUAGGUAGAAGGGCCGAGAGAUU [Excl-NG2-LRO11] (Eterna round: R96, puzzle: Exclusion NG 2)	70.7 nM	67.3 nM		apparent KD of MS2 coat protein [4]: 66.3 nM
CUGAAGGUGCAGGAUAUCCUGAAUAAGGGUUCAGGAGAAGGGCACACAUGAGGAUCACCCAUGUUAAUACUGCU [Eternabot (L2) Solution 54] (Eterna round: R97, puzzle: Exclusion 6)	29.5 nM	39.1 nM		
CUGAGCAGACGGAGAUCCCACAUGAGGAUCACCCAUGUCUCAAAAGCUUUUUGCUUGUCUUAUUCUCCUCUGUUCUC [Arorza] (Eterna round: R96, puzzle: Sensor v3, turn-off variant 1)	13.7 nM	15.8 nM		apparent KD of MS2 coat protein [4]: 72.2 nM
CUGAGCAGACGGAGAUCCCACAUGAGGAUCACCCAUGUCUCAAAAGCUUUUUGCUUGUCUUAUUCUCCUCUGUUCUC [Arorza] (puzzle: Sensor v3, turn-off variant 1)			100 nM	apparent KD of MS2 coat protein [1]: 13.9 nM; apparent KD of MS2 coat protein [3]: 11.4 nM
CUGAGCUGAGGAUAUACAUGAGGAUCACCCAUGUGAAGUAGCUUGCGUACAGGCAGAUGUAGAAGGCAGUUCGG [JL-ex3-3.31 Brourd mod] (puzzle: Exclusion 3)			34.6 nM	
CUGAGCUGAGGAUAUACAUGAGGAUCACCCAUGUGAAGUAGCUUGCGUACAGGCAGAUGUAGAAGGCAGUUCGG [Mod of JL 1 - Jieux - Exclusion 3] (Eterna round: R97, puzzle: Exclusion 3)	250 nM	42.1 nM		

Sequence	apparent KD of MS2 coat protein (input ligand: FMN 200 uM)	apparent KD of MS2 coat protein (input ligand: none)	apparent KD of MS2 coat protein [2]	also measured
CUGAGCUGAGGAUAUACAUGAGGAUCACCCAUGUGUUCCAGCUUGGGUACAGGCACAUGUAGAAGGCAGUUCGG [Mod of JL - ex3-3.35 Brourd mod] (puzzle: Exclusion 3)			62 nM	
CUGAGCUGAGGAUAUACAUGAGGAUCACCCAUGUUAAGCAGCUAGUGAAGAAGUAGAUGUAGAAGGCAGUUCGG [Mod of JL 21 - Jieux - Exclusion 3] (Eterna round: R97, puzzle: Exclusion 3)	75.2 nM	21 nM		
CUGAGGUAGCGGUCCUAUGACAUGAGGAUCACCCAUGUACCUUGCUUCGAGCUUAUUGCUCGUCUUAUGAUUCUCGG [Mat - Sensor v3 - turn-off var 1 - JL Mod - D33] (puzzle: Sensor v3, turn-off variant 1)			714 nM	apparent KD of MS2 coat protein [1]: 551 nM; apparent KD of MS2 coat protein [3]: 613 nM
CUGAGGUAGCGGUCCUAUGACAUGAGGAUCACCCAUGUACCUUGCUUCGAGCUUUUAGCUCGUCUUAUGAUUCUCGG [Mat - Sensor v3 - turn-off var 1 - JL Mod - D36] (puzzle: Sensor v3, turn-off variant 1)			502 nM	apparent KD of MS2 coat protein [1]: 423 nM; apparent KD of MS2 coat protein [3]: 522 nM
CUGAGGUAGCGGUCCUAUGACAUGAGGAUCACCCAUGUGCCUUGCUACAAGCUUUUUGCUCGUUUUAUGAUUCUCGG [JL Atriat mod 10] (puzzle: Sensor v3, turn-off variant 1)			64.6 nM	apparent KD of MS2 coat protein [1]: 72.8 nM; apparent KD of MS2 coat protein [3]: 83.5 nM
CUGAGUAGUCAGGAUAUGCUGUACAAAAGUACAGCAGAAGGGACUACAUGAGGAUCACCCAUGUUUACUUCAUG [)mei Ex6 B22] (Eterna round: R97, puzzle: Exclusion 6)	1260 nM	821 nM		
CUGAGUUAAGGAUAUACAUGAGGAUCACCCAUGUAAAGUAGCUUGCGUACAGGCAGAUGUAGAAGGUAAUUCGG [Mod of JL 8 - Jieux - Exclusion 3] (Eterna round: R97, puzzle: Exclusion 3)	37.2 nM			
CUGAGUUGAGGAUAUACAUGAGGAUCACCCAUGUAAAGUAGCUUGCGUACAGGCAGAUGUAGAAGGCAAUUCGG [Mod of JL 3 - Jieux - Exclusion 3] (Eterna round: R97, puzzle: Exclusion 3)	37.6 nM	24.5 nM		
CUGAUGUCAGGAUAUCGGUGGCUCACUAAUGUGUGCCAGACCGAGAAGGGACAUGAGGAUCACCCAUGUCUUUA [Exclusion 4 (Mod5b of #36 by Marzena11)] (Eterna round: R97, puzzle: Exclusion 4)	42.4 nM	26.2 nM		
CUGCAACAUGAGGAUCACCCAUGUCAGGAUAUUCCAAAAUCGUCGAAAGACGAUAACAGAAGAAGGGACAGUAG [Fiskxlusion 7 - Jieux - Exclusion 1] (Eterna round: R97, puzzle: Exclusion 1)	44 nM	35.6 nM		
CUGCCAACGAAGCUUGUCGACAUGAGGAUCACCCAUGUUUCGCAAAGUGUUACAAAAAAAUAUCUGUAUGAAAAUGU [JR_Sensorv2_yov_Sub1319] (Eterna round: R96, puzzle: Sensor v2, turn-off variant)	11.8 nM	15.9 nM		apparent KD of MS2 coat protein [4]: 10.2 nM
CUGCGUAGAGGAUAUACAUGAGGAUCACCCAUGUGCUAAAUGACUGCAUGCAAAUCGUGUAGAAGGUUGAAGGG [Eternabot (L2) Solution 85] (Eterna round: R97, puzzle: Exclusion 3)	34.6 nM	40.4 nM		
CUGCUCCGUGUAGGAUAUGCAUACUCCCAUUAUGCAGAAGGACAUGAGGAUCACCCAUGUAUGUUAUUAUCACGUGUAGCGUAC [Design 15] (Eterna round: R96, puzzle: Exclusion NG 1)	104 nM	29.9 nM		apparent KD of MS2 coat protein [4]: 21.2 nM
CUGCUCCGUGUAGGAUAUGCGUACAACCAAUAUGCAGAAGGACAUGAGGAUCACCCAUGUAUGUUAUUAUCACGUGAAGCGUCC [Design 21] (Eterna round: R96, puzzle: Exclusion NG 1)				apparent KD of MS2 coat protein [4]: 16 nM
CUGCUGGAGCUUCGCUUUGGUCGUACAUGAGGAUCACCCAUGUAGGAUAUGGUAAAAUUCGCCUGCUAGAAGGAUAGAGUGGUC [salish99_ExNG3_r04_619] (Eterna round: R96, puzzle: Exclusion NG 3)				apparent KD of MS2 coat protein [4]: 80.1 nM
CUGGAUAGAGGAUAUUGUACUGCUGACAUGAGGAUCACCCAUGUAUGUUAACUCGGCCGUCGAGAAGGCUAACAAA [BotMod 14 - Jieux - Exclusion 5] (Eterna round: R97, puzzle: Exclusion 5)	16.3 nM	33.4 nM		
CUGGUCCGAGGAUAUAUGAUGUGAAACAUGAGGAUCACCCAUGUAAUAUUAUGGAUGGAAAUAGAAGGCGGACUAG [Mat - Exclusion 5 - JL mod - D36] (puzzle: Exclusion 5)			49.7 nM	apparent KD of MS2 coat protein [1]: 63.5 nM; apparent KD of MS2 coat protein [3]: 65.2 nM
